{"source": "patent EP4582451A1", "about": "(Changchun Genescience Pharmaceutical Co., Ltd., dated 2025)", "binders": {"B1": {"name": "humanized antibody cAb01-VH2-DA-VL3 (named hAb01_G4P) (antibody, human IgG4 S228P, kappa)", "heavy": "not shown", "light": "EIVLTQSPATLSLSPGERATLSCSASSSVSYMHWYQQKPGQAPKRWIYDTSKLASGVPARFSGSGSGTDYTLTISSLEPEDFAVYYCQQWSSNPWTFGGGTKLEIKRTVAAPSVFIFPPSDEQLKSGTASVVCLLNNFYPREAKVQWKVDNALQSGNSQESVTEQDSKDSTYSLSSTLTLSKADYEKHKVYACEVTHQGLSSPVTKSFNRGEC"}, "B2": {"name": "hAb01_G4P_V2 (antibody, human IgG4 S228P, kappa)", "heavy": "EVQLVESGGGLVKPGGSLRLSCAASGFTLSDYYIYWVRQAPGKGLEWVATISDAVIYTYYADSVKGRFTISRDNAKNSLYLQMNSLRAEDTAVYFCARAYGSSEVMDYWGQGTLVTVSSASTKGPSVFPLAPCSRSTSESTAALGCLVKDYFPEPVTVSWNSGALTSGVHTFPAVLQSSGLYSLSSVVTVPSSSLGTKTYTCNVDHKPSNTKVDKRVESKYGPPCPPCPAPEFEGGPSVFLFPPKPKDTLYITREPEVTCVVVDVSQEDPEVQFNWYVDGVEVHNAKTKPREEQFNSTYRVVSVLTVLHQDWLNGKEYKCKVSNKGLPSSIEKTISKAKGQPREPQVYTLPPSQEEMTKNQVSLTCLVKGFYPSDIAVEWESNGQPENNYKTTPPVLDSDGSFFLYSRLTVDKSRWQEGNVFSCSVMHEALHNHYTQKSLSLSLGK", "light": "B1 light", "notes": "also called hAb01_G4_V2"}, "B3": {"name": "hAb01_G1_V4 (antibody, human IgG1, kappa, L234A L235A)", "heavy": "EVQLVESGGGLVKPGGSLRLSCAASGFTLSDYYIYWVRQAPGKGLEWVATISDAVIYTYYADSVKGRFTISRDNAKNSLYLQMNSLRAEDTAVYFCARAYGSSEVMDYWGQGTLVTVSSASTKGPSVFPLAPSSKSTSGGTAALGCLVKDYFPEPVTVSWNSGALTSGVHTFPAVLQSSGLYSLSSVVTVPSSSLGTQTYICNVNHKPSNTKVDKKVEPKSCDKTHTCPPCPAPEAAGGPSVFLFPPKPKDTLYITREPEVTCVVVDVSHEDPEVKFNWYVDGVEVHNAKTKPREEQYNSTYRVVSVLTVLHQDWLNGKEYKCKVSNKALPAPIEKTISKAKGQPREPQVYTLPPSRDELTKNQVSLTCLVKGFYPSDIAVEWESNGQPENNYKTTPPVLDSDGSFFLYSKLTVDKSRWQQGNVFSCSVMHEALHNHYTQKSLSLSPGK", "light": "B1 light"}, "B4": {"name": "humanized antibody cAb01-VH1-DA-VL3 (antibody, human IgG4 S228P, kappa, V domains shown)", "VH": "EVQLVESGGGLVKPGGSLRLSCAASGFTLSDYYIYWVRQAPGKGLEWVSTISDAVIYTYYADSVKGRFTISRDNAKNSLYLQMNSLRAEDTAVYYCARAYGSSEVMDYWGQGTLVTVSS", "VL": "EIVLTQSPATLSLSPGERATLSCSASSSVSYMHWYQQKPGQAPKRWIYDTSKLASGVPARFSGSGSGTDYTLTISSLEPEDFAVYYCQQWSSNPWTFGGGTKLEIKR", "notes": "Humanized from mAb001"}, "B5": {"name": "humanized antibody cAb01-VH2-DA-VL2 (antibody, human IgG4 S228P, kappa, V domains shown)", "VH": "B4 VH with S49A, Y95F", "VL": "B4 VL with K44R, V57I", "notes": "Humanized from mAb001"}}, "key": {"[1]": {"molecular_target": "T1, human thyroid-stimulating hormone receptor (TSHR) (human, UniProt P16473 21-764)", "T1 sequence (P16473 21-764)": "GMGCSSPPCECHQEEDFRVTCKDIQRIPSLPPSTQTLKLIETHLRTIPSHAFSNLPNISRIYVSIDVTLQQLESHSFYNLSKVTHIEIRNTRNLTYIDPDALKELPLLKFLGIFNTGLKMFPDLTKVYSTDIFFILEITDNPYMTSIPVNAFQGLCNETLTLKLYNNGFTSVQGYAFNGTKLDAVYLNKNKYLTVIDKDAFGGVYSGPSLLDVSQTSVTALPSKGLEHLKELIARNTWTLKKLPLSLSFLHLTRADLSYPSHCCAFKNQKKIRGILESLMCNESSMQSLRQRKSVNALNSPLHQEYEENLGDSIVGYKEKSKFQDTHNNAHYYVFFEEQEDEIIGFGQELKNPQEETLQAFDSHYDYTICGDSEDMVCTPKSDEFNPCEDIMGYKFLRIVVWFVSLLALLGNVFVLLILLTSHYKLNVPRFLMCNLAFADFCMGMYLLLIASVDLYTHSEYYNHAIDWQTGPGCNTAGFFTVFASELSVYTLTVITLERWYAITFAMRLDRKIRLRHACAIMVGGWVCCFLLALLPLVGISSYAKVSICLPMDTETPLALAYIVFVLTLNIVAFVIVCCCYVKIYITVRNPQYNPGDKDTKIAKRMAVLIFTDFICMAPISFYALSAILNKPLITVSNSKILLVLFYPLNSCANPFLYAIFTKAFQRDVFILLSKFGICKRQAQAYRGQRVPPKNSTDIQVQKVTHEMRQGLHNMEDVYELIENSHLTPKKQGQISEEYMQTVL", "experiment": "cell-based or functional assay"}, "[2]": {"molecular_target": "T2, mouse thyroid-stimulating hormone receptor (TSHR) (mouse, UniProt P47750 22-764)", "T2 construct": "whole, on cells; Overexpressed on 293 cells; also called mouse TSHR; murine TSHR", "T2 sequence (P47750 22-764)": "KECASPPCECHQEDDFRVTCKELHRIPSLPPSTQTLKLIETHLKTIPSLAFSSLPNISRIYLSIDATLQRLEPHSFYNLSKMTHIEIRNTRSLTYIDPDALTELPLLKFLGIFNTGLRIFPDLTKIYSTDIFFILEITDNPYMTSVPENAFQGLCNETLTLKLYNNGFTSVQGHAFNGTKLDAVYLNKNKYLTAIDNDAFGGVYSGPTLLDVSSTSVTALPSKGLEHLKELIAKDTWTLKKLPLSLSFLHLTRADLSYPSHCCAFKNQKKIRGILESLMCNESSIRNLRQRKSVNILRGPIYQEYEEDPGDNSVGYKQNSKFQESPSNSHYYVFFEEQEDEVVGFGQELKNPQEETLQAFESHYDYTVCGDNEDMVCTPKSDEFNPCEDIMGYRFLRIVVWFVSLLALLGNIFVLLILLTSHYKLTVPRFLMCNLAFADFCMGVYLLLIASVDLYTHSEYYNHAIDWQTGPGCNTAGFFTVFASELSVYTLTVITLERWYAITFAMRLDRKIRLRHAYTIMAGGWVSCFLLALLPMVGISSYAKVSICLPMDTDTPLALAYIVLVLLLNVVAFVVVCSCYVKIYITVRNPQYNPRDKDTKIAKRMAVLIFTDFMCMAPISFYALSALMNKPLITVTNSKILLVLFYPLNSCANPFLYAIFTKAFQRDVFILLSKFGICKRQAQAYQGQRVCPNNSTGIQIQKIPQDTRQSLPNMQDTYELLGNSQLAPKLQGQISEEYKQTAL", "experiment": "flow cytometry (FACS), 293 cells overexpressing mouse TSHR"}, "[3]": {"molecular_target": "T3, monkey thyroid-stimulating hormone receptor (TSHR) (monkey, UniProt A0A2K5X226 21-764)", "T3 construct": "Overexpressed on 293 cells; also called monkey TSHR", "T3 sequence (A0A2K5X226 entry or part of it limits assumed, form in doubt)": "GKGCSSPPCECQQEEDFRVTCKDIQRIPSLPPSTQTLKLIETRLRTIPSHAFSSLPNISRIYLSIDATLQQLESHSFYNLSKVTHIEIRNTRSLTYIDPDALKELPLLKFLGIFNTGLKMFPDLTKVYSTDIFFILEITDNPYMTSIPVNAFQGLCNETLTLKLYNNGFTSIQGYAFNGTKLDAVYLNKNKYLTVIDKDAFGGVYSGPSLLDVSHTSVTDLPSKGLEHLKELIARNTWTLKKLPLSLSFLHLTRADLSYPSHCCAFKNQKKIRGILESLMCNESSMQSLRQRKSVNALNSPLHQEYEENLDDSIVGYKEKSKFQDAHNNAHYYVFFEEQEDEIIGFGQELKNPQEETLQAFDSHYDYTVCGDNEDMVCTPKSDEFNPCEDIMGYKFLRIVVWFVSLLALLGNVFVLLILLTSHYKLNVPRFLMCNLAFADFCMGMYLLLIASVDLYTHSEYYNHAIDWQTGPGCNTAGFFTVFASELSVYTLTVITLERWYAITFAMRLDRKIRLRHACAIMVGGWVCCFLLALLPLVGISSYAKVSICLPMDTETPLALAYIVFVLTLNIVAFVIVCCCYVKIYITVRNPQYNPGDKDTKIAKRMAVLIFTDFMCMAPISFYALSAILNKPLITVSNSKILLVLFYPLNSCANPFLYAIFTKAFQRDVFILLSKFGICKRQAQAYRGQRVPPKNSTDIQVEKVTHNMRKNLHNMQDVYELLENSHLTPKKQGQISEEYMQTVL", "experiment": "flow cytometry (FACS), 293 cells overexpressing monkey TSHR"}, "[4]": {"molecular_target": "T4, hFcRn-Avi (Biosystems, FCM-H82W7) (human (printed as hFcRn), UniProt P55899 24-297; P61769 21-119, biotin on the Avi tag is implied by capture on an SA chip)", "T4 construct": "Bought reagent", "T4 sequence (P55899 24-297 limits assumed, chain 1 of 2)": "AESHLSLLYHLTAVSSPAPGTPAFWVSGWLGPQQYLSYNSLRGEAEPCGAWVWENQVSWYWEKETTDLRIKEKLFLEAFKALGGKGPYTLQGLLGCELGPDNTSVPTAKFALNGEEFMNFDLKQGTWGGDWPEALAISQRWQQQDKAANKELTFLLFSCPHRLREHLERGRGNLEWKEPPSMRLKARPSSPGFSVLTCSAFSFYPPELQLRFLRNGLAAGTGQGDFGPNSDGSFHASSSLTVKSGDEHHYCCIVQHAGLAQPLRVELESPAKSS", "T4 sequence (P61769 21-119 limits assumed, chain 2 of 2)": "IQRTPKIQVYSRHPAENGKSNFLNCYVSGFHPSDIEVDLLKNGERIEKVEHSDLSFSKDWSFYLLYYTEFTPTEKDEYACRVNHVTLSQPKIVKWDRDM", "experiment": "SPR (Biacore 8K+), hFcRn-Avi captured on SA chip, antibody in flow, pH 6.0, 25 C, steady-state fit"}, "[5]": {"molecular_target": "T1, human thyroid-stimulating hormone …", "experiment": "cell-based or functional assay", "remark": "listed apart in the source"}, "[6]": {"molecular_target": "T2, mouse thyroid-stimulating hormone …", "experiment": "flow cytometry (FACS), 293 cells overexpressing mouse TSHR", "remark": "listed apart in the source"}, "[7]": {"molecular_target": "T3, monkey thyroid-stimulating hormone …", "experiment": "flow cytometry (FACS), 293 cells overexpressing monkey TSHR", "remark": "listed apart in the source"}, "[8]": {"molecular_target": "T1, human thyroid-stimulating hormone …", "experiment": "flow cytometry (FACS), 293 cells overexpressing human TSHR"}, "[9]": {"molecular_target": "T1, human thyroid-stimulating hormone …", "experiment": "cell-based or functional assay", "remark": "listed apart in the source"}, "[10]": {"molecular_target": "T1, human thyroid-stimulating hormone …", "experiment": "flow cytometry (FACS), 293 cells overexpressing human TSHR", "remark": "listed apart in the source"}}, "note": "Where a chain is given by its changes, count along the chain named. Like-named read-outs stand apart in the source and are kept apart here.", "data": [{"binder": "B1", "values": [{"measurement": "IC50(nM), cAMP in 293-human TSHR cells activated by Tab01 (30 nM)", "setting": "[1]", "result": 2.2, "unit": "nM"}, {"measurement": "IC50(nM), cAMP in 293-human TSHR cells activated by Tab02 (6.5 nM)", "setting": "[1]", "result": 2.2, "unit": "nM"}, {"measurement": "EC50", "setting": "[2]", "result": 3.22, "unit": "nM"}, {"measurement": "Maximum binding signal", "setting": "[2]", "result": 123000}, {"measurement": "EC50", "setting": "[3]", "result": 2.6, "unit": "nM"}, {"measurement": "Maximum binding signal", "setting": "[3]", "result": 193000}, {"measurement": "Kd", "setting": "[4]", "result": 343, "unit": "nM"}, {"measurement": "Response value (RU)", "setting": "[4]", "result": 35.8, "unit": "RU"}, {"measurement": "IC50 (nM), cAMP in 293-human TSHR cells activated by Tab01", "setting": "[5]", "result": 2.28, "unit": "nM"}, {"measurement": "IC50 (nM), cAMP in 293-human TSHR cells activated by Tab02", "setting": "[5]", "result": 2.4, "unit": "nM"}, {"measurement": "Maximum inhibition rate (%), cAMP in 293-human TSHR cells activated by Tab01", "setting": "[5]", "result": 102, "unit": "%"}, {"measurement": "Maximum inhibition rate (%), cAMP in 293-human TSHR cells activated by Tab02", "setting": "[5]", "result": 94.2, "unit": "%"}]}, {"binder": "B2", "values": [{"measurement": "Kd", "setting": "[4]", "result": 121, "unit": "nM"}, {"measurement": "Response value (RU)", "setting": "[4]", "result": 73.5, "unit": "RU"}, {"measurement": "EC50", "setting": "[6]", "result": 2.43, "unit": "nM"}, {"measurement": "Max_MFI", "setting": "[6]", "result": 135000}, {"measurement": "EC50", "setting": "[7]", "result": 2.94, "unit": "nM"}, {"measurement": "Max_MFI", "setting": "[7]", "result": 189000}, {"measurement": "IC50 (nM), cAMP in 293-human TSHR cells activated by Tab01", "setting": "[5]", "result": 4.18, "unit": "nM"}, {"measurement": "IC50 (nM), cAMP in 293-human TSHR cells activated by Tab02", "setting": "[5]", "result": 4.38, "unit": "nM"}, {"measurement": "Maximum inhibition rate (%), cAMP in 293-human TSHR cells activated by Tab01", "setting": "[5]", "result": 106, "unit": "%"}, {"measurement": "Maximum inhibition rate (%), cAMP in 293-human TSHR cells activated by Tab02", "setting": "[5]", "result": 100, "unit": "%"}, {"measurement": "EC50", "setting": "[8]", "result": 4.64, "unit": "nM"}, {"measurement": "Max_MFI", "setting": "[8]", "result": 287000}]}, {"binder": "B3", "values": [{"measurement": "Kd", "setting": "[4]", "result": 90, "unit": "nM"}, {"measurement": "Response value (RU)", "setting": "[4]", "result": 94.5, "unit": "RU"}, {"measurement": "EC50", "setting": "[6]", "result": 2.75, "unit": "nM"}, {"measurement": "Max_MFI", "setting": "[6]", "result": 178000}, {"measurement": "EC50", "setting": "[7]", "result": 2.77, "unit": "nM"}, {"measurement": "Max_MFI", "setting": "[7]", "result": 244000}, {"measurement": "IC50 (nM), cAMP in 293-human TSHR cells activated by Tab01", "setting": "[5]", "result": 5.4, "unit": "nM"}, {"measurement": "IC50 (nM), cAMP in 293-human TSHR cells activated by Tab02", "setting": "[5]", "result": 2.04, "unit": "nM"}, {"measurement": "Maximum inhibition rate (%), cAMP in 293-human TSHR cells activated by Tab01", "setting": "[5]", "result": 94, "unit": "%"}, {"measurement": "Maximum inhibition rate (%), cAMP in 293-human TSHR cells activated by Tab02", "setting": "[5]", "result": 91.1, "unit": "%"}, {"measurement": "EC50", "setting": "[8]", "result": 4.4, "unit": "nM"}, {"measurement": "Max_MFI", "setting": "[8]", "result": 371000}]}, {"binder": "B4", "values": [{"measurement": "IC50(nM), cAMP in 293-human TSHR cells activated by Tab01 (30 nM)", "setting": "[1]", "result": 0.085, "unit": "nM"}, {"measurement": "IC50(nM), cAMP in 293-human TSHR cells activated by Tab02 (6.5 nM)", "setting": "[1]", "result": 0.054, "unit": "nM"}, {"measurement": "EC50", "setting": "[2]", "result": 2.9, "unit": "nM"}, {"measurement": "Maximum binding signal", "setting": "[2]", "result": 106000}, {"measurement": "EC50", "setting": "[3]", "result": 2.3, "unit": "nM"}, {"measurement": "Maximum binding signal", "setting": "[3]", "result": 180000}]}, {"binder": "B5", "values": [{"measurement": "IC50(nM), cAMP in 293-human TSHR cells activated by Tab01 (30 nM)", "setting": "[9]", "result": 0.28, "unit": "nM"}, {"measurement": "IC50(nM), cAMP in 293-human TSHR cells activated by Tab02 (6.5 nM)", "setting": "[9]", "result": 0.15, "unit": "nM"}, {"measurement": "Inhibition rate (%), cAMP in 293-human TSHR cells activated by Tab01 (30 nM)", "setting": "[9]", "result": 76.7, "unit": "%"}, {"measurement": "Inhibition rate (%), cAMP in 293-human TSHR cells activated by Tab02 (6.5 nM)", "setting": "[9]", "result": 86.2, "unit": "%"}, {"measurement": "EC50", "setting": "[2]", "result": 2.16, "unit": "nM"}, {"measurement": "Maximum binding signal", "setting": "[2]", "result": 117000}, {"measurement": "EC50", "setting": "[3]", "result": 2.14, "unit": "nM"}, {"measurement": "Maximum binding signal", "setting": "[3]", "result": 193000}, {"measurement": "EC50", "setting": "[10]", "result": 3.71, "unit": "nM"}, {"measurement": "Maximum binding signal", "setting": "[10]", "result": 396000}]}]}
